B1: CPEB3 Ribozyme (parent)
chain: UAACAGGGGGCCACAGCAGAAGCGUUCACGUCGCAGCCCCUGUCAGAUUCUGGUGAAUCUGCGAAUUCUGCUGUAUAUCUC

In the data set the parent is B1. As to the kind of experiment: self-cleavage, relative activity (ratio to wild type); higher = more cleavage; in vitro, sequencing. The method in brief:
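CPEB3 self-cleaving ribozyme mutant libraries were made by rounds of error-prone PCR, barcoded, and transcribed in vitro with T7 RNA polymerase for 5 hours at 37°C. Cleavage occurred during transcription and a 15 min DNase I step before EDTA stop. RNAs were reverse transcribed with template switching and Illumina-sequenced, with DNA sequencing mapping barcodes to variants. Relative activity is the variant's cleaved/total read fraction divided by wild type's (minimum 5 reads), averaged across three batches.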
G52C U69C: the self-cleavage is 0.86.

With U51G U60A, the self-cleavage was found to be 0.78.

For U51G U60C, the self-cleavage was determined as 0.39. Regarding G52U G63A, the self-cleavage was found to be 0.99. With G52U G63U, the self-cleavage is 1.2. For the variant C50U A77G, the self-cleavage came to 1.11.

In the case of U51A A57G, the self-cleavage was 0.56. With U51A A57U, the self-cleavage is 0.53.

Regarding C50G U69A, the self-cleavage turned out to be 0.17. C50G U69C: the self-cleavage is 0.14. As to G52A A65G, the self-cleavage came to 0.53.

As for U51G G70A, the self-cleavage came to 0.69. Take U51A U69C: the self-cleavage was found to be 0.67. With U51A U69A, the self-cleavage is 0.64. Regarding U49G U78C, the self-cleavage was found to be 0.43.

For U51A C79G, the self-cleavage was 1.17. For U51A C79U, the self-cleavage came out at 1.18. As to U51G G63U, the self-cleavage amounted to 1.1. To U51G G63A belongs 0.98; to G52A U78A, 1.19. In the case of G52A U78C, the self-cleavage came to 1.13. For the variant U51C U74A, the self-cleavage came to 1.3.

Consider U51C U74G, for which the self-cleavage is 1.21. U51C U74C: the self-cleavage came to 1.21. Consider G52A, for which the self-cleavage was 1.14. In the case of G52U, the self-cleavage was determined as 1.13. In the case of G52C, the self-cleavage was determined as 1.05.

Consider U49G C81U, for which the self-cleavage was determined as 0.77.

For G52A U72G, the self-cleavage came out at 0.94. To G52A U72C belongs 1.21; to G52A U72A, 1.13.

With U49G U80C, the self-cleavage was determined as 0.48.

Turning to C50U U80C, the self-cleavage is 1.07. On to U51A C71U, for which the self-cleavage was found to be 0.73. The figure for G52A U60C is 0.78; for G52A U60G it is 0.44. Take G52A U60A: the self-cleavage turned out to be 0.4. Take U51C U58C: the self-cleavage came out at 0.37. With U51C U58A, the self-cleavage was 0.25. In the case of U51G A77G, the self-cleavage is 1.1. To U51G A77U belongs 1.16; to U51A G73A, 1.15. Take U51C A57U: the self-cleavage came out at 0.44. Turning to U51C A57G, the self-cleavage was determined as 0.91. Turning to U51C A57C, the self-cleavage was determined as 0.44. To U51C C71A belongs 0.53. Take U51C C71U: the self-cleavage amounted to 0.62.

As to U51G, the self-cleavage turned out to be 0.99.

With U51C, the self-cleavage was found to be 1.04.

For U51A, the self-cleavage was determined as 1.05. Regarding U51G U78C, the self-cleavage came to 0.97. The figure for G52C U67C is 0.57; for G52C U67A it is 0.88; for G52U U66C it is 0.54. For the variant G52U U66A, the self-cleavage amounted to 0.64. U51C U78A: the self-cleavage was 1.02. As to U51C U78C, the self-cleavage amounted to 0.99. U49G A77G: the self-cleavage was determined as 0.39. As for C50U C79U, the self-cleavage was found to be 1.16. For the variant U51G A57G, the self-cleavage is 0.74. Regarding G52A U74C, the self-cleavage amounted to 1.26. Take U51G U74A: the self-cleavage was 1.14. Turning to G52A U66A, the self-cleavage was determined as 0.66. On to G52A U66G, for which the self-cleavage came to 0.76. As to U51G U58C, the self-cleavage is 0.37. G52A A64G: the self-cleavage was found to be 1.03.

For the variant U49G U54C, the self-cleavage was determined as 0.44. On to G52A U67A, for which the self-cleavage was 0.51.

For C50A U60A, the self-cleavage amounted to 0.27. For C50A U60C, the self-cleavage was 0.13. As to U51A A77G, the self-cleavage turned out to be 0.93. On to U51A A77U, for which the self-cleavage was 1.03.

Take U51G U76A: the self-cleavage came to 1.19. On to U51G U76C, for which the self-cleavage came out at 1.17. With C50U U58C, the self-cleavage was determined as 0.35.

On to G52U A56G, for which the self-cleavage was 1.14. In the case of U49G U58C, the self-cleavage is 0.2. Turning to G52C A56G, the self-cleavage came to 1.12. For the variant G52A U54G, the self-cleavage was 1.16. Consider G52A U54C, for which the self-cleavage amounted to 1.09.

For G52A U54A, the self-cleavage was 1.16. Consider U51C G63A, for which the self-cleavage is 0.61. In the case of U51C G63U, the self-cleavage was 1.07. To U51G C68A belongs 0.45. Regarding G52A A77U, the self-cleavage turned out to be 0.98. To C50U U67C belongs 0.31; to C50A A77U, 0.67.

With C50G U51C, the self-cleavage worked out at 0.68.

Turning to C50U U76A, the self-cleavage came to 0.94. On to C50U U76C, for which the self-cleavage worked out at 0.98.

In the case of U51G U72C, the self-cleavage amounted to 0.95. U51G U72G: the self-cleavage came to 0.57. Consider U51G U72A, for which the self-cleavage came out at 0.91.

Regarding U49G G55U, the self-cleavage came to 0.88. To C50A U74C belongs 0.87; to C50A U51A, 0.84; to C50A U51C, 0.93. Consider U51C A75G, for which the self-cleavage is 1.01.

In the case of U51C A75C, the self-cleavage was 1.21.

For the variant U51C A75U, the self-cleavage worked out at 0.98.

For the variant G52A A57G, the self-cleavage was found to be 0.99. For the variant G52A G53A, the self-cleavage came to 1.13. With U51G A75G, the self-cleavage turned out to be 0.89. With U51G A75U, the self-cleavage was 1.22. The figure for U51C C81A is 1.18; for U51C C81U it is 1.15. Take U51A A56U: the self-cleavage was 0.68. The figure for U51A A56G is 0.5; for U51A U80G it is 1.18; for U51A U80C it is 1. To U51A U80A belongs 1.07; to C50A G73A, 1.24; to U51A C62U, 0.25.

As for U51A C62G, the self-cleavage amounted to 0.23. To U51A C62A belongs 0.22; to U51C C59A, 0.29; to U51C C59U, 0.68.

Turning to C50U A64U, the self-cleavage amounted to 0.52. For the variant C50U A64G, the self-cleavage was determined as 0.99. To U51G G61A belongs 0.45.

Consider U51A U54C, for which the self-cleavage was 1.07. For the variant U51A U54G, the self-cleavage was 0.43. Turning to U51A U54A, the self-cleavage came to 1.04. C50U A65G: the self-cleavage is 0.4. Turning to U51A U78G, the self-cleavage was 1.04.

Consider U51A U78A, for which the self-cleavage turned out to be 1. As for U51A U78C, the self-cleavage stood at 0.83.

On to C50U U51C, for which the self-cleavage amounted to 0.8. Take C50U U51A: the self-cleavage amounted to 1.17. To U51G U67C belongs 0.17. For the variant U51G U67A, the self-cleavage worked out at 0.43. For the variant G52C U74A, the self-cleavage was determined as 1.28. With C50A U69C, the self-cleavage was 0.49. Consider C50A U69A, for which the self-cleavage was 0.42. As for U51C C62A, the self-cleavage was determined as 0.31. On to U51C C62G, for which the self-cleavage turned out to be 0.39. For the variant U51C C62U, the self-cleavage turned out to be 0.31. As for U51A C81A, the self-cleavage is 1.1. C50G A57G: the self-cleavage came to 0.51. On to U51A U76G, for which the self-cleavage was 1.09.

As for U51A U76A, the self-cleavage came to 1.09. Regarding U51A U76C, the self-cleavage was determined as 1.11. The figure for U51G A56U is 0.52. To U51G A56C belongs 0.55. For the variant U51G A56G, the self-cleavage was found to be 0.65. As to U49G G63A, the self-cleavage was found to be 0.28. To U51G C81A belongs 1.25. In the case of U51A U66C, the self-cleavage turned out to be 0.42. As for U51A U66A, the self-cleavage amounted to 0.51. To U49G U69A belongs 0.36; to U49G U69C, 0.21. In the case of G52C U80C, the self-cleavage amounted to 1.2. On to G52C U80A, for which the self-cleavage amounted to 1.22. Turning to U51C C68G, the self-cleavage was found to be 0.69. U51C C68U: the self-cleavage stood at 1.14. Take U51C U80A: the self-cleavage is 1.13.

Regarding U51C U80G, the self-cleavage turned out to be 1.17.

U51C U80C: the self-cleavage worked out at 1.15. Take C50U A56G: the self-cleavage is 0.85. To C50U A56U belongs 0.82.

In the case of G52A U58C, the self-cleavage was found to be 0.68. The figure for G52A U58A is 0.5. Regarding G52A U58G, the self-cleavage turned out to be 0.34.

As for U49G U67C, the self-cleavage is 0.31.

Consider C50A U78C, for which the self-cleavage was 0.71. As for C50A U78G, the self-cleavage came out at 1.06. Consider U49G U51C, for which the self-cleavage stood at 0.63.

Values taken from the RNAGym collection of RNA variant scans (doi:10.1093/nar/gkz1192).
